According to the supplement of paper PMC10724198:
± gives the standard deviation of the averaged measurements.

What follows are sequences tested on Saccharomyces cerevisiae (assay: protein stability index of tFT-peptide fusion (C-terminal peptide) (PSI (0-1 scale)); higher = more stable (slower turnover)). Details: genetic background: wild type; temperature: 30 C.
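Further: PSI is a weighted mean of sequencing reads over stability bins, variants kept only with over 10 reads, mCherry proximal and sfGFP distal, peptide attached via GGGS linker.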

Sequence | protein stability index
VLWVLDAFCFGG | 0.643 ± 0.0084
VMGGWGCGVLRG | 0.731 ± 0.021
VMNHYCRFPVST | 0.598 ± 0.023
VMRRYVFPSGFF | 0.677 ± 0.023
VMWVGGAAGPVV | 0.663 ± 0.037
VNELYDNETTYV | 0.734 ± 0.035
VPAPLPRTSPPS | 0.673 ± 0.053
VPAYLVAARQYY | 0.655 ± 0.012
VPFRLFSSYLSG | 0.641 ± 0.037
VPGYLLIDFWWV | 0.5707 ± 0.001
VPHLPATPPAPP | 0.646 ± 0.037
VPLTKHENNFNE | 0.709 ± 0.018
VPPASTSPGAFP | 0.6889 ± 0.003
VPPLVPLHPPPP | 0.709 ± 0.047
VPPPRYLPAFPA | 0.694 ± 0.0078
VPPSCPRPPTAP | 0.676 ± 0.064
VPQREWGGVRLG | 0.675 ± 0.017
VPRMLSTPKAQP | 0.723 ± 0.01
VPSRRLPLPPAS | 0.695 ± 0.0086
VPVGSLLVGSVT | 0.528 ± 0.012
VQASESGLRAGV | 0.686 ± 0.0092
VQASFLPGGSVR | 0.7062 ± 0.0039
VQGFYPVSAEGG | 0.674 ± 0.022

Sequence | protein stability index
VQVLLMFTWERE | 0.511 ± 0.016
VRCAVVTMDLTL | 0.691 ± 0.05
VRCCFGGRGAIA | 0.6461 ± 0.0016
VRDVIGWGEEEY | 0.708 ± 0.017
VREVTIGGGLGE | 0.707 ± 0.0087
VRGTGRQLNKSM | 0.662 ± 0.054
VRGVCLWGGVVG | 0.641 ± 0.099
VRLELIRSKLSR | 0.701 ± 0.022
VRLLGVGGGFTC | 0.701 ± 0.038
VRLRLGLLAGWS | 0.633 ± 0.012
VRLWLTLQQVDF | 0.686 ± 0.085
VRMKAAIGNGAE | 0.6686 ± 0.0037
VRNPPPLTRTRP | 0.687 ± 0.0097
VRRFRYCLGFFR | 0.663 ± 0.059
VRRGHEGCGLRY | 0.717 ± 0.025
VRRGRQHLRYGR | 0.708 ± 0.045
VRRSGMNIVVLP | 0.63872 ± 0.00027
VRRSNKTIKRKK | 0.746 ± 0.1
VRRVWYGSFSRL | 0.81 ± 0.012
VRSFSFSALLAV | 0.58 ± 0.024
VRSVSCPCCAHF | 0.7058 ± 0.0056
VRVGVGGVSEFE | 0.67062 ± 0.00015
VRVRGDPLVCPL | 0.592 ± 0.0096

Sequence | protein stability index
VRVSGVSVVRFW | 0.667 ± 0.012
VRWGVGVGVGWD | 0.682 ± 0.057
VSAPRLRVSCNP | 0.696 ± 0.014
VSARRTLRFSFE | 0.685 ± 0.016
VSCGGSARRASP | 0.704 ± 0.0078
VSCLPFLDLMSW | 0.701 ± 0.012
VSEKICNCLGKT | 0.657 ± 0.088
VSGAAFMSSAFW | 0.753 ± 0.045
VSGLKYSVLVGG | 0.555 ± 0.015
VSLISCGGVYAG | 0.688 ± 0.015
VSLVDRFVLAIV | 0.5619 ± 0.0011
VSPGPSPPPPPR | 0.622 ± 0.072
VSPLSHPPSPAP | 0.702 ± 0.021
VSRPRSLLVPNF | 0.67 ± 0.07
VSSAGRPRGFLP | 0.671 ± 0.01
VSSELLFLVVRF | 0.543 ± 0.0089
VSTVFGCDICST | 0.701 ± 0.034
VSVGEDGNRPTC | 0.645 ± 0.071
VSVGGVWGQCVA | 0.6618 ± 0.0047
VSVGLGRCSIFW | 0.7217 ± 0.0048
VTAIVLSVLSGC | 0.556 ± 0.022
VTEGGGGGKGRG | 0.6917 ± 0.0064
VTGPLSSDSSFT | 0.672 ± 0.017

Sequence | protein stability index
VTGTQGELGSFV | 0.689 ± 0.11
VTIDETMSKGIN | 0.698 ± 0.045
VTSRSFYRVSPL | 0.68 ± 0.14
VTSTVPRFPQFT | 0.667 ± 0.014
VTTKMQVAGSRK | 0.6377 ± 0.00065
VVAGCLWGEYAT | 0.702 ± 0.17
VVAPETTPFSPR | 0.7193 ± 0.007
VVCLGGVVLPRV | 0.65788 ± 0.00012
VVEPEVCLPSMR | 0.6942 ± 0.0032
VVFFPVLSYFFR | 0.649 ± 0.064
VVFQSLPCLSPP | 0.758 ± 0.037
VVGAGDWRWGVW | 0.78884 ± 0.00041
VVGAIVILRGLR | 0.632 ± 0.018
VVGALRFSDLFK | 0.73 ± 0.042
VVGAVFFGCRLL | 0.6 ± 0.15
VVGGVLRFLLLW | 0.599 ± 0.013
VVGPVLTCAVRF | 0.617 ± 0.076
VVHSRSTPAHPH | 0.679 ± 0.12
VVLGESSGGVGV | 0.643 ± 0.097
VVPSRCCQRLRK | 0.716 ± 0.035
VVRLRCSVGWCS | 0.575 ± 0.011
VVRQDQPDLKSS | 0.691 ± 0.008
VVRRHKRVLMRF | 0.659 ± 0.015

Sequence | protein stability index
VVSDGARLVWGG | 0.754 ± 0.12
VVSYFFSNDVLH | 0.752 ± 0.073
VVSYVHTQPPLS | 0.684 ± 0.073
VVTFSRSDIVLR | 0.694 ± 0.076
VVVFPYCPLPLV | 0.597 ± 0.076
VVVGVGGGVDMG | 0.685 ± 0.0082
VVVSDFRSCNMS | 0.736 ± 0.043
VVVVRCGWGGCG | 0.592 ± 0.012
VWASVRRIFRVG | 0.554 ± 0.0058
VWGVRVVCGFTV | 0.533 ± 0.0038
VWLGGRECVVRG | 0.597 ± 0.02
VWRGVWQVVVGG | 0.5227 ± 0.0013
VWSDGCWVDWLL | 0.733 ± 0.13
VWSGGCVSRWSG | 0.745 ± 0.15
VWSLGLSVVGLW | 0.649 ± 0.092
VYFLRLERVPSF | 0.696 ± 0.017
VYGGFGGGRWVI | 0.702 ± 0.087
VYGVLLGWGCVV | 0.577 ± 0.015
VYGWSPLSEARN | 0.738 ± 0.025
VYLVVSSSMDYR | 0.633 ± 0.078
VYNLHRGLFLSL | 0.512 ± 0.0097
VYSAGRAVGLAG | 0.673 ± 0.035
VYSGYVFRKDGI | 0.695 ± 0.024

Sequence | protein stability index
VYTNAVPLSSNA | 0.817 ± 0.1
VYVEMWGTSENW | 0.653 ± 0.011
WAGGGFVVGCVG | 0.629 ± 0.062
WALRADGGERTG | 0.684 ± 0.021
WAPFGKMVGGPW | 0.785 ± 0.027
WAPPPPYSPFSL | 0.704 ± 0.0098
WARFRKGEVRSG | 0.748 ± 0.072
WARLVSSSLAAT | 0.61763 ± 0.00038
WAVGGKVNEVIE | 0.757 ± 0.06
WCGSSGLFLVVW | 0.594 ± 0.017
WCTLNGASLCLH | 0.7719 ± 0.0067
WCWTYLRFSVEL | 0.677 ± 0.055
WDGGGGGFGLVV | 0.755 ± 0.06
WDGWPTRAGGTG | 0.7141 ± 0.0069
WEGVGERVGGGA | 0.638 ± 0.017
WENMDKCSKGLI | 0.6767 ± 0.0033
WERRRGVCGGVW | 0.707 ± 0.05
WEWGCRVEELSG | 0.742 ± 0.0086
WFFRSVVPRCGG | 0.63 ± 0.038
WFPSSLPLTCIQ | 0.651 ± 0.084
WGAGGGGWWGGV | 0.731 ± 0.03
WGALVLAVRSAP | 0.642 ± 0.037
WGEGSGRVWEIS | 0.679 ± 0.019

Sequence | protein stability index
WGGAGRVWVLGP | 0.696 ± 0.019
WGGGGRGWGSRG | 0.684 ± 0.057
WGGGSGRRIGCR | 0.70604 ± 0.00021
WGGLGGREPGGS | 0.74 ± 0.078
WGGVRRVRVGGQ | 0.723 ± 0.053
WGLCWFGCLWGR | 0.692 ± 0.033
WGLGVGGCGWVG | 0.67 ± 0.018
WGPGGGGVSDGM | 0.768 ± 0.019
WGQGTGFWGLFG | 0.681 ± 0.024
WGRGEWKRGQEA | 0.743 ± 0.053
WGRTRGDHGGKK | 0.686 ± 0.04
WGSWCLVPDGNE | 0.717 ± 0.084
WGTTLMYKAKKA | 0.616 ± 0.024
WHACAGWLGQKG | 0.71 ± 0.078
WHGDDSSIWQVG | 0.791 ± 0.036
WHGSVPHLWFPP | 0.59 ± 0.026
WHIEGFGQYYSL | 0.736 ± 0.019
WHRCQWTPASRP | 0.733 ± 0.05
WIGHALPSSNSH | 0.675 ± 0.056
WKKSIKKDTREM | 0.721 ± 0.012
WKPGSPGCQAFR | 0.6031 ± 0.0017
WKRDSCFFIEAG | 0.638 ± 0.042
